Laboratory results taken from publication doi:10.1101/422709 (bioRxiv, 2019).

Target: the molecule itself
Test: crystal structure

B1: phosphoribulokinase from Arabidopsis thaliana (enzyme, UniProt P25697 47-395, looked up)
chain: AQETIVIGLAADSGCGKSTFMRRLTSVFGGAAKPPKGGNPDSNTLISDTTTVICLDDYHSLDRYGRKEQKVTALDPRANDFDLMYEQVKALKNGIAVEKPIYNHVTGLLDPPELIQPPKILVIEGLHPMFDERVRDLLDFSIYLDISNEVKFAWKIQRDMAERGHSLESIKASIEARKPDFDAFIDPQKQYADAVIEVLPTTLIPDDNEGKVLRVRLIMKEGVKYFSPVYLFDEGSTISWIPCGRKLTCSYPGIKFNYEPDSYFDHEVSVLEMDGQFDRLDELIYVESHLSNLSTKFYGEVTQQMLKHADFPGSNNGTGLFQTIVGLKIRDLYEQLIANKATARAEAKA
In the case of B1, the “stoichiometry N” value is reported as 2.

B2: phosphoribulokinase from Chlamydomonas reinhardtii (enzyme, UniProt P19824 32-375, looked up)
chain: DKDKTVVIGLAADSGCGKSTFMRRMTSIFGGVPKPPAGGNPDSNTLISDMTTVICLDDYHCLDRNGRKVKGVTALAPEAQNFDLMYNQVKALKEGKSVDKPIYNHVSGLIDAPEKIESPPILVIEGLHPFYDKRVAELLDFKIYLDISDDIKFAWKIQRDMAERGHSLESIKSSIAARKPDFDAYIDPQKKDADMIIQVLPTQLVPDDKGQYLRVRLIMKEGSKMFDPVYLFDEGSTISWIPCGRKLTCSFPGIKMFYGPDTWYGQEVSVLEMDGQFDKLEELIYVESHLSNTSAKFYGEITQQMLKNSGFPGSNNGTGLFQTIVGLKVREVYERIVKKDVVPV
With B2 the “stoichiometry N” value was 2.
